# Reference: patent US20160264649A1
# Assays:
# Assay in all cases: cell-based or functional assay
# [1] = target: HIV-1 92RW008 Env (HIV-1)
# [2] = target: HIV-1 Env of isolate 6535.3 (subtype B) (HIV-1)
# [3] = target: HIV-1 Env of isolate 92 BR 020 (subtype B) (HIV-1)
# [4] = target: HIV-1 Env of isolate 93IN905 (subtype C) (HIV-1)
# [5] = target: HIV-1 Env of isolate 93MW959 (subtype C) (HIV-1)
# [6] = target: HIV-1 Env of isolate 93TH305 (subtype B) (HIV-1)
# [7] = target: HIV-1 Env of isolate 97ZA012 (subtype C) (HIV-1)
# [8] = target: HIV-1 Env of isolate 98IN022 (subtype C) (HIV-1)
# [9] = target: HIV-1 Env of isolate APV_13 (subtype B) (HIV-1)
# [10] = target: HIV-1 Env of isolate APV_17 (subtype B) (HIV-1)
# [11] = target: HIV-1 Env of isolate APV_6 (subtype B) (HIV-1)
# [12] = target: HIV-1 Env of isolate CAAN.A2 (subtype B) (HIV-1)
# [13] = target: HIV-1 Env of isolate JRCSF (subtype B) (HIV-1) (UniProt P20871)
# [14] = target: HIV-1 Env of isolate JRFL (subtype B) (HIV-1)
# [15] = target: HIV-1 Env of isolate MG RM-C-019 (subtype C) (HIV-1)
# [16] = target: HIV-1 Env of isolate MG RM-C-020 (subtype C) (HIV-1)
# [17] = target: HIV-1 Env of isolate MG RM-C-022 (subtype C) (HIV-1)
# [18] = target: HIV-1 Env of isolate MG RM-C-023 (subtype C) (HIV-1)
# [19] = target: HIV-1 Env of isolate MG RM-C-024 (subtype C) (HIV-1)
# [20] = target: HIV-1 Env of isolate MG RM-C-025 (subtype C) (HIV-1)
# [21] = target: HIV-1 Env of isolate MG RM-C-026 (subtype C) (HIV-1)
# [22] = target: HIV-1 Env of isolate MG RM-C-027 (subtype C) (HIV-1)
# [23] = target: HIV-1 Env of isolate MG RM-C-028 (subtype C) (HIV-1)
# [24] = target: HIV-1 Env of isolate MGRM-Chronic-B-001 (subtype B) (HIV-1)
# [25] = target: HIV-1 Env of isolate MGRM-Chronic-B-002 (subtype B) (HIV-1)
# [26] = target: HIV-1 Env of isolate MGRM-Chronic-B-003 (subtype B) (HIV-1)
# [27] = target: HIV-1 Env of isolate MGRM-Chronic-B-004 (subtype B) (HIV-1)
# [28] = target: HIV-1 Env of isolate MGRM-Chronic-B-008 (subtype B) (HIV-1)
# [29] = target: HIV-1 Env of isolate MGRM-Chronic-B-010 (subtype B) (HIV-1)
# [30] = target: HIV-1 Env of isolate MGRM-Chronic-B-011 (subtype B) (HIV-1)
# [31] = target: HIV-1 Env of isolate MGRM-Chronic-B-012 (subtype B) (HIV-1)
# [32] = target: HIV-1 Env of isolate MGRM-Chronic-B-017 (subtype B) (HIV-1)
# [33] = target: HIV-1 Env of isolate MGRM-Chronic-B-018 (subtype B) (HIV-1)
# [34] = target: HIV-1 Env of isolate MGRM-Chronic-B-020 (subtype B) (HIV-1)
# [35] = target: HIV-1 Env of isolate MGRM-Chronic-B-023 (subtype B) (HIV-1)
# [36] = target: HIV-1 Env of isolate MGRM-Chronic-B-024 (subtype B) (HIV-1)
# [37] = target: HIV-1 Env of isolate NL43 (subtype B) (HIV-1)
# [38] = target: HIV-1 Env of isolate PVO.4 (subtype B) (HIV-1)
# [39] = target: HIV-1 Env of isolate QH0692.42 (subtype B) (HIV-1)
# [40] = target: HIV-1 Env of isolate SC422661.8 (subtype B) (HIV-1)
# [41] = target: HIV-1 Env of isolate SF162 (subtype B) (HIV-1) (UniProt P19550)
# [42] = target: HIV-1 Env of isolate THR0.18 (subtype B) (HIV-1)
# [43] = target: HIV-1 Env of isolate TRJ04551.58 (subtype B) (HIV-1)
# [44] = target: HIV-1 Env of isolate TRO.11 (subtype B) (HIV-1)
# [45] = target: HIV-1 Env of isolate VLGCB3 (subtype B) (HIV-1)
# Chain of 4980_N08 (PGT-143) (antibody) (VH): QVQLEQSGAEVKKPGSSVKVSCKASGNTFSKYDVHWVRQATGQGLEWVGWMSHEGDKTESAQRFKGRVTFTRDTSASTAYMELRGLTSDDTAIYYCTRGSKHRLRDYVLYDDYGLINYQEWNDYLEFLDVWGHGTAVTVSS
# Chain of 4980_N08 (PGT-143) (antibody) (VL): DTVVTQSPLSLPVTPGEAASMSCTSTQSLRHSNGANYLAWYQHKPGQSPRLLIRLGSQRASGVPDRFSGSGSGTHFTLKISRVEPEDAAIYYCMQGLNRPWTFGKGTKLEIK
# Chain of 4995_E20 (PGT-142) (antibody) (VH): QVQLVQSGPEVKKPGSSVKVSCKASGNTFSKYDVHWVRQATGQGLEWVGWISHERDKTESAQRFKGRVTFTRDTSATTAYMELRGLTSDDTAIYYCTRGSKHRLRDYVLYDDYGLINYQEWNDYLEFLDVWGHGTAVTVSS
# Chain of 4995_E20 (PGT-142) (antibody) (VL): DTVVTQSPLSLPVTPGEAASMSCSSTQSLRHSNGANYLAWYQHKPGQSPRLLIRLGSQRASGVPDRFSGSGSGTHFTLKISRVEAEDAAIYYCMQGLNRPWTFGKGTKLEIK
substance,measurement,setting,value
4980_N08 (PGT-143) (antibody),IC50,[1],0.385 µg/mL
same,IC50,[2],> 50 µg/mL
same,IC50,[3],25.9 µg/mL
same,IC50,[4],0.002 µg/mL
same,IC50,[5],0.002 µg/mL
same,IC50,[6],17.3 µg/mL
same,IC50,[7],> 50 µg/mL
same,IC50,[8],0.001 µg/mL
same,IC50,[9],> 50 µg/mL
same,IC50,[10],1.11 µg/mL
same,IC50,[11],14 µg/mL
same,IC50,[12],> 50 µg/mL
same,IC50,[13],0.007 µg/mL
same,IC50,[14],> 50 µg/mL
same,IC50,[15],0.004 µg/mL
same,IC50,[16],0.797 µg/mL
same,IC50,[17],0.103 µg/mL
same,IC50,[18],0.148 µg/mL
same,IC50,[19],0.05 µg/mL
same,IC50,[20],0.336 µg/mL
same,IC50,[21],> 50 µg/mL
same,IC50,[22],0.598 µg/mL
same,IC50,[23],12.4 µg/mL
same,IC50,[24],> 50 µg/mL
same,IC50,[25],> 50 µg/mL
same,IC50,[26],0.854 µg/mL
same,IC50,[27],0.395 µg/mL
same,IC50,[28],> 50 µg/mL
same,IC50,[29],> 50 µg/mL
same,IC50,[30],1.56 µg/mL
same,IC50,[31],> 50 µg/mL
same,IC50,[32],0.145 µg/mL
same,IC50,[33],0.377 µg/mL
same,IC50,[34],> 50 µg/mL
same,IC50,[35],0.236 µg/mL
same,IC50,[36],0.01 µg/mL
same,IC50,[37],> 50 µg/mL
same,IC50,[38],0.162 µg/mL
same,IC50,[39],> 50 µg/mL
same,IC50,[40],2.02 µg/mL
same,IC50,[41],> 50 µg/mL
same,IC50,[42],0.016 µg/mL
same,IC50,[43],> 50 µg/mL
same,IC50,[44],0.219 µg/mL
same,IC50,[45],> 50 µg/mL
4995_E20 (PGT-142) (antibody),IC50,[1],0.447 µg/mL
same,IC50,[2],> 50 µg/mL
same,IC50,[3],15.1 µg/mL
same,IC50,[4],0.001 µg/mL
same,IC50,[5],0.001 µg/mL
same,IC50,[6],5.86 µg/mL
same,IC50,[7],> 50 µg/mL
same,IC50,[8],0.001 µg/mL
same,IC50,[9],> 50 µg/mL
same,IC50,[10],0.628 µg/mL
same,IC50,[11],4.72 µg/mL
same,IC50,[12],> 50 µg/mL
same,IC50,[13],0.01 µg/mL
same,IC50,[14],> 50 µg/mL
same,IC50,[15],0.003 µg/mL
same,IC50,[16],0.446 µg/mL
same,IC50,[17],0.086 µg/mL
same,IC50,[18],0.087 µg/mL
same,IC50,[19],0.03 µg/mL
same,IC50,[20],0.183 µg/mL
same,IC50,[21],> 50 µg/mL
same,IC50,[22],0.792 µg/mL
same,IC50,[23],2.12 µg/mL
same,IC50,[24],> 50 µg/mL
same,IC50,[25],> 50 µg/mL
same,IC50,[26],0.484 µg/mL
same,IC50,[27],0.172 µg/mL
same,IC50,[28],> 50 µg/mL
same,IC50,[29],> 50 µg/mL
same,IC50,[30],0.994 µg/mL
same,IC50,[31],> 50 µg/mL
same,IC50,[32],0.076 µg/mL
same,IC50,[33],0.323 µg/mL
same,IC50,[34],> 50 µg/mL
same,IC50,[35],0.486 µg/mL
same,IC50,[36],0.005 µg/mL
same,IC50,[37],> 50 µg/mL
same,IC50,[38],0.066 µg/mL
same,IC50,[39],> 50 µg/mL
same,IC50,[40],3.15 µg/mL
same,IC50,[41],> 50 µg/mL
same,IC50,[42],0.012 µg/mL
same,IC50,[43],> 50 µg/mL
same,IC50,[44],0.27 µg/mL
same,IC50,[45],> 50 µg/mL
